Data as given in PMC6156512.

What was measured:
[1] = target: HPV 58 L1 aa 10–498 (human papillomavirus type 58); assay: not stated; purified L1 under reducing conditions (Fig. S4); about ~8 nm in diameter; monomers to pentamer
[2] = target: HPV 58 L1 aa 10–498 (human papillomavirus type 58); assay: cryo-EM structure; purified VLPs at ~3 mg/mL vitrified on Quantifoil holey carbon grids; FEI TF30 at 300 kV; T = 7 particle images boxed manually; pentamers to VLP
[3] = target: HPV 52 L1 aa 15–503 (human papillomavirus type 52); assay: not stated; purified L1 under reducing conditions (Fig. S4); about ~8 nm in diameter; monomers to pentamer
[4] = target: HPV 52 L1 aa 15–503 (human papillomavirus type 52); assay: cryo-EM structure; purified VLPs at ~3 mg/mL vitrified on Quantifoil holey carbon grids; FEI TF30 at 300 kV; T = 7 particle images boxed manually; pentamers to VLP
[5] = target: HPV 33 L1 aa 10–499 (human papillomavirus type 33) (UniProt P06416); assay: not stated; purified L1 under reducing conditions (Fig. S4); about ~8 nm in diameter; monomers to pentamer
[6] = target: HPV 33 L1 aa 10–499 (human papillomavirus type 33) (UniProt P06416); assay: cryo-EM structure; purified VLPs at ~3 mg/mL vitrified on Quantifoil holey carbon grids; FEI TF30 at 300 kV; T = 7 particle images boxed manually; pentamers to VLP
[7] = target: HPV 45 L1 aa 1–513 (human papillomavirus type 45); assay: not stated; purified L1 under reducing conditions (Fig. S4); about ~8 nm in diameter; monomers to pentamer
[8] = target: HPV 45 L1 aa 1–513 (human papillomavirus type 45); assay: cryo-EM structure; purified VLPs at ~3 mg/mL vitrified on Quantifoil holey carbon grids; FEI TF30 at 300 kV; T = 7 particle images boxed manually; pentamers to VLP

HPV 58 L1 aa 10–498 (domain or fragment)
stoichiometry N [1]: 5 | stoichiometry N (pentamers per particle) [2]: 72

HPV 52 L1 aa 15–503 (domain or fragment)
stoichiometry N [3]: 5 | stoichiometry N (pentamers per particle) [4]: 72

HPV 33 L1 aa 10–499 (from UniProt P06416 10-499) (domain or fragment)
stoichiometry N [5]: 5 | stoichiometry N (pentamers per particle) [6]: 72

HPV 45 L1 aa 1–513 (natural protein)
stoichiometry N [7]: 5 | stoichiometry N (pentamers per particle) [8]: 72
